The source of these data is US20040248785A1 (UNIVERSITY OF MARYLAND BALTIMORE, published 2004).

Test [1] deals with T1, low density lipoprotein receptor-related protein / alpha2-macroglobulin receptor (LRP), isolated from human … (human, UniProt Q07954 20-4544).
T1 construct: mature; Native receptor coated on microtiter wells; also called purified LRP; immobilized LRP
In words: competition assay: peptide 484-509 added with 125I-fVIII (1 nM) to LRP-coated wells; competitor of fVIII for LRP. The procedure: FIGS. 17A-17B. Effect of monoclonal antibodies and synthetic peptides on ¹²⁵fVIII binding to purified LRP. […] Binding of ¹²⁵I-fVIII in the presence antibodies or peptides is expressed as the percentage of its binding, when no competitor was added. The mean and standard deviation of the triplicate measurements are presented.
(§1) Homologous and heterologous ligand displacement assays were performed as previously described (Williams, S. E., et al., J. Biol. Chem. 267:9035-9040 (1992)). Microtiter wells were coated with purified LRP or BSA (3 μg/ml) in 50 mM Tris, 0.15 M NaCl, pH 8.0, for 16 h and then blocked with 3% BSA in TBS. Coated wells were incubated with ¹²⁵I-A2 or ¹²⁵I-fVIII in 20 mM Tris-buffered saline pH 7.4, containing 5 mM CaCl₂, 0.05% Tween-20 in the presence or absence of unlabeled competitors for 1 h at 37° C. The radioactivity bound to the wells was counted using a γ-counter (Pharmacia). Affinity constants were derived from homologous and heterologous displacement data using the computer program LIGAND (Munson, P T and Rodbard, D. Anal. Biochem. 107:220-239 (1980)).

Test [2] deals with T1, low density lipoprotein …. The test is described as follows: RAP as competitor of 125I-fVIII (1 nM) binding to LRP-coated wells, LIGAND fit.
In test [3] the target is T1, low density lipoprotein …. In words: solid-phase heterologous ligand displacement: RAP competes with 125I-fVIII (1 nM) for LRP-coated wells, 1 h at 37 C. The procedure:
FIGS. 15A-15B. Binding of ¹²⁵I-fVIII to purified LRP by ligand competition assay. ¹²⁵I-fVIII (1 nM) was incubated for 1 h at 37° C. in wells coated with LRP (•) or BSA (∘) in the presence of increasing concentrations of unlabeled competitors, fVIII (•, ∘) or vWf (Δ) (FIG. 15A) and RAP (•, ∘) (FIG. 15B). In the experiment (Δ), ¹²⁵I-fVIII was preincubated with vWf for 30 min at 37° C., prior to its addition to the wells. Following incubation, the wells were washed and ¹²⁵I-fVIII binding was determined. Binding of ¹²⁵I-fVIII in the presence of unlabeled fVIII, vWf, or RAP is expressed as the percentage of ¹²⁵fVIII binding, when no competitor was added. Each point represents the mean value of triplicates and the error bars display the standard deviation. The curves show a best fit of the data to a model describing heterologous ligand displacement from a single class of binding sites using the program LIGAND.
Homologous and heterologous ligand displacement assays were performed as previously described (Williams, S. E., et al., J. Biol. Chem. 267:9035-9040 (1992)). Microtiter wells were coated with purified LRP or BSA (3 μg/ml) in 50 mM Tris, 0.15 M NaCl, pH 8.0, for 16 h and then blocked with 3% BSA in TBS. […] The radioactivity bound to the wells was counted using a γ-counter (Pharmacia). […]

Test [4] addresses T1, low density lipoprotein …. In words: heterologous displacement of 125I-fVIII (1 nM) from LRP-coated wells; isolated A2 domain as competitor. The procedure:
as §1
(§2) In order to localize fVIII region(s) involved in interaction with LRP, binding between ¹²⁵I-fVIII and immobilized LRP was competed by unlabeled fVIII fragments.
For orientation: Displacement assays read how much labelled ligand stays bound in the presence of the test substance.

Test [5] concerns the target T1, low density lipoprotein …. The test is described as follows: homologous displacement of 125I-A2 (5 nM) by unlabeled A2 (0-1750 nM) on immobilized LRP, program Ligand.
For test [6], the target named is LRP on mouse embryonic fibroblast (MEF) cells (mouse, UniProt Q91ZX7 20-4545). The test is described as follows: cell-based or functional assay.
The target in test [7] is T1, low density lipoprotein …. The test is described as follows: heterologous displacement of 125I-fVIII (1 nM) from LRP-coated wells; HCh as competitor. The procedure:
as §1, §2

T1 sequence (Q07954 20-4544, form in doubt): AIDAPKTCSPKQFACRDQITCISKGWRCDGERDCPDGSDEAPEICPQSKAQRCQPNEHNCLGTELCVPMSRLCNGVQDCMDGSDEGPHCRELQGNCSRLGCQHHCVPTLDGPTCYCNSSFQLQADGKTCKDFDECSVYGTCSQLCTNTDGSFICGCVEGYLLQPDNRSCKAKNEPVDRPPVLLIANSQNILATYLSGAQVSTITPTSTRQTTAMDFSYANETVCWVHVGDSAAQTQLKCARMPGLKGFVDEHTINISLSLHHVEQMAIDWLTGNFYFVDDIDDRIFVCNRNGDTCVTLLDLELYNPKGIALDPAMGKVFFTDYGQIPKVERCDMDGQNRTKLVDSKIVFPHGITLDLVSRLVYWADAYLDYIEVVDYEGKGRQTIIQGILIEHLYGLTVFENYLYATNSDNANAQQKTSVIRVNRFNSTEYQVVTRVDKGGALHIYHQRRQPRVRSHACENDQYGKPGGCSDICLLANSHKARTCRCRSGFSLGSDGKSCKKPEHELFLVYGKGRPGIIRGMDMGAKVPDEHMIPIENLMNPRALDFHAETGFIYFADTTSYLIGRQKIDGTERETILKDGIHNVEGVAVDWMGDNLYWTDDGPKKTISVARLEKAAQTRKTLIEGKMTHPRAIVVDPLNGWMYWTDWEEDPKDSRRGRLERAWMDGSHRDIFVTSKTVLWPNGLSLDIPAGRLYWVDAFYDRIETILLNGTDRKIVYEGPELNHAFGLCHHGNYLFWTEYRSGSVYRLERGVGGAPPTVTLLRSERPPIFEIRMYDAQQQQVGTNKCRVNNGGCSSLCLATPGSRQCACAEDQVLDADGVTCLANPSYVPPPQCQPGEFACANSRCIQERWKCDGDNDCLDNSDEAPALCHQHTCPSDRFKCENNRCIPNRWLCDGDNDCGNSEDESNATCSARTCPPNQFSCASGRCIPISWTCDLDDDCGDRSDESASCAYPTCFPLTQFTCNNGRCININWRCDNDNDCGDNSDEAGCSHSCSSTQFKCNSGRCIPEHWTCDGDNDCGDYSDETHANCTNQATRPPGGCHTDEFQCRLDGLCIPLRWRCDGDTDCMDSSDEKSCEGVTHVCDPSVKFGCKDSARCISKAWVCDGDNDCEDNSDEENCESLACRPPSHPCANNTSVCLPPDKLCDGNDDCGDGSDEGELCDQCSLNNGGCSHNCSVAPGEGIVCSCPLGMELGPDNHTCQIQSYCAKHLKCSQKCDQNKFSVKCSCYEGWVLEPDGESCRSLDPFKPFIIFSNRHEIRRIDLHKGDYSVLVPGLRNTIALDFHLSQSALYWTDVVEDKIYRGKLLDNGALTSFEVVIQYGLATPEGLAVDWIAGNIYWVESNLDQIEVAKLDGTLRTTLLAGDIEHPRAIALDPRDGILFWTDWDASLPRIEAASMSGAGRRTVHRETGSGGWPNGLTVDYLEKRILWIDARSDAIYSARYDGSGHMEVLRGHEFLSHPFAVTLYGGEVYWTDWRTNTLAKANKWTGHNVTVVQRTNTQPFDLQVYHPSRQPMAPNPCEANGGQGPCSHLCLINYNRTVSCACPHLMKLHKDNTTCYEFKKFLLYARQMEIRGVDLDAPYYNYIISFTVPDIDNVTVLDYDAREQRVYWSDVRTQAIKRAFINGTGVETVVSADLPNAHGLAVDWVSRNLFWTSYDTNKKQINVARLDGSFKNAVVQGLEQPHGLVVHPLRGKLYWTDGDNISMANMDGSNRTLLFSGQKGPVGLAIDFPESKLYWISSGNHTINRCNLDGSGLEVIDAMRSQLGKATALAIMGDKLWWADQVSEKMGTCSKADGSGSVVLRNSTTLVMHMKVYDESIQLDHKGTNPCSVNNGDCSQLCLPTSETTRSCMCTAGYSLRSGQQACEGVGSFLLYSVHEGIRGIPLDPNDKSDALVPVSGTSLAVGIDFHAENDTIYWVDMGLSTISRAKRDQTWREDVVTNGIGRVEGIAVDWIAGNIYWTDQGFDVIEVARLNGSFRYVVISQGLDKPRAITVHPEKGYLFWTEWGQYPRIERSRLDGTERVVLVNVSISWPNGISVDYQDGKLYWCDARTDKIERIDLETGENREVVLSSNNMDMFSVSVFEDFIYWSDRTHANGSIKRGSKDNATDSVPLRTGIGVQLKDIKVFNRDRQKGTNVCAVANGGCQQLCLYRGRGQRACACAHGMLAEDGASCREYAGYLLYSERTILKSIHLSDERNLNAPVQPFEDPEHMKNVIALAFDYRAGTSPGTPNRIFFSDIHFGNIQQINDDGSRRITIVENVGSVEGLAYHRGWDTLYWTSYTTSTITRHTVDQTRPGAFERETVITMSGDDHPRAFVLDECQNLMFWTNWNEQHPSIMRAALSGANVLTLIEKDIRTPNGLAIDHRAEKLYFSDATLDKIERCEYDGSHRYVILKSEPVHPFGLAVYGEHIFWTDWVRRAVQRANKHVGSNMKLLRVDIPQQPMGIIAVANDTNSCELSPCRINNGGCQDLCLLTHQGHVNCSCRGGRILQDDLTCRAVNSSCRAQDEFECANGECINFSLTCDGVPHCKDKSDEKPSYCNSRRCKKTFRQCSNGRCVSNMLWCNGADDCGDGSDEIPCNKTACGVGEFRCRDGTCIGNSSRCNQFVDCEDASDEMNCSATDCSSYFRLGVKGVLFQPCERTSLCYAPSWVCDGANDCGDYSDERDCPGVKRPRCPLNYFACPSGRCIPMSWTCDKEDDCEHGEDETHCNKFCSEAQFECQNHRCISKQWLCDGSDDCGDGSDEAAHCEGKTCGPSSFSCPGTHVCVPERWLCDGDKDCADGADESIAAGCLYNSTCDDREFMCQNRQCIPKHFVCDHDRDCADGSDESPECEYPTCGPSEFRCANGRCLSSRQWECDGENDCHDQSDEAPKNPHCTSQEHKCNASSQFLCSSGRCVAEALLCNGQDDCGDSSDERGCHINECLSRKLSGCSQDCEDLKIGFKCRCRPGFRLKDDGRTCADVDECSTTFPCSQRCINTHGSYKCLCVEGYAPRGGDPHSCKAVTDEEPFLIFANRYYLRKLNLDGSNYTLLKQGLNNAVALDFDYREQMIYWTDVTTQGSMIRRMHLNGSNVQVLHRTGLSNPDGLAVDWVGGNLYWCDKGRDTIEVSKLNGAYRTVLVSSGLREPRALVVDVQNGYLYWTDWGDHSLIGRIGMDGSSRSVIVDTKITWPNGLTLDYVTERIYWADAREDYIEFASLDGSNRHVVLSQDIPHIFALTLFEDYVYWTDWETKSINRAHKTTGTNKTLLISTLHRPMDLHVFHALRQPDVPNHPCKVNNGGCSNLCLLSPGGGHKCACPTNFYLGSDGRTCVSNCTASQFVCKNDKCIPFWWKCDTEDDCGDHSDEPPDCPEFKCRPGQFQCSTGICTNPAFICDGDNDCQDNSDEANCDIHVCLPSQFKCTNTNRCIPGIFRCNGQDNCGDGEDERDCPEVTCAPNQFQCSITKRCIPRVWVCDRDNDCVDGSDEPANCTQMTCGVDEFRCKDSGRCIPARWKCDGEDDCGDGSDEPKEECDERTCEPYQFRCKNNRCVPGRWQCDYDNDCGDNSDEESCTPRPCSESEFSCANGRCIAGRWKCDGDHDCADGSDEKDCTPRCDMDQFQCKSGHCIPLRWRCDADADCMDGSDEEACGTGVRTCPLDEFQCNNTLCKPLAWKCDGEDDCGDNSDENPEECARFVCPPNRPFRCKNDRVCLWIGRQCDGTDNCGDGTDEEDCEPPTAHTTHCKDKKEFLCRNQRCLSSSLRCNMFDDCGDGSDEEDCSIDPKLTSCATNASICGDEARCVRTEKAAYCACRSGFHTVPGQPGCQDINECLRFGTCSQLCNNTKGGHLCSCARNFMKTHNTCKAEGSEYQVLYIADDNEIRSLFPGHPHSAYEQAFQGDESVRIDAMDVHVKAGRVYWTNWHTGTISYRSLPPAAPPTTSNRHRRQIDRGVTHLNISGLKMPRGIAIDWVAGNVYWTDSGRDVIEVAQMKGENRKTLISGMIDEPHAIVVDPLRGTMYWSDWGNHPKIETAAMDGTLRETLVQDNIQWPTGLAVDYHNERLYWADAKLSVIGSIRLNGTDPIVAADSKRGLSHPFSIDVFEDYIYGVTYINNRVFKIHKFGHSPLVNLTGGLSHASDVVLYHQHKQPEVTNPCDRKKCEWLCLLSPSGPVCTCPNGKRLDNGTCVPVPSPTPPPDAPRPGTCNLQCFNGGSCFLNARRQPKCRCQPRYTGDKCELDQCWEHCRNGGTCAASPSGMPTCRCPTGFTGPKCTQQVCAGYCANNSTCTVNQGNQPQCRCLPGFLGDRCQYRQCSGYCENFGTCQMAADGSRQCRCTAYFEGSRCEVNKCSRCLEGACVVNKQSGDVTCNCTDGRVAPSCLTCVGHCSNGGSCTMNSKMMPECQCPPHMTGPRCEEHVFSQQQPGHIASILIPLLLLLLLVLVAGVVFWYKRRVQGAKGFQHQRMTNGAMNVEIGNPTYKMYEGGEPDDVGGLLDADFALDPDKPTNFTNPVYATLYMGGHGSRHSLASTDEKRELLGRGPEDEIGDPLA

Turning to RPLYSRRLPKGVKHLKDFPILPGEIF [synthetic peptide of fVIII A2 domain residues 484-509], in test [1], the “IC50 (read off the curve)” value was roughly 1000 nM.

B1: 39 kDa receptor-associated protein (RAP), human, expressed in bacteria (ligand)
chain: YSREKNQPKPSPKRESGEEFRMEKLNQLWEKAQRLHLPPVRLAELHADLKIQERDELAWKKLKLDGLDEDGEKEARLIRNLNVILAKYGLDGKKDARQVTSNSLSGTQEDGLDDPRLEKLWHKAKTSGKFSGEELDKLWREFLHHKEKVHEYNVLLETLSRTEEIHENVISPSDLSDIKGSVLHSRHTELKEKLRSINQGLDRLRRVSHQGYSTEAEFEEPRVIDLWDLAQSANLTDKELEAFREELKHFEAKIEKHNHYQKQLEIAHEKLRHAESVGDGERVSRSREKHALLEGRTKELGYTVKKHLQDLSGRISRARHNEL
notes: also called alpha2 macroglobulin receptor-associated protein
B1 had a Ki in test [2] of 2.5 nM. The “IC50 (read off the curve)” value in test [3] was roughly 2 nM.

B2: A2 subunit (A2 domain) of factor VIII, isolated from thrombin-activated fVIII (other)
chain: SVAKKHPKTWVHYIAAEEEDWDYAPLVLAPDDRSYKSQYLNNGPQRIGRKYKKVRFMAYTDETFKTREAIQHESGILGPLLYGEVGDTLLIIFKNQASRPYNIYPHGITDVRPLYSRRLPKGVKHLKDFPILPGEIFKYKWTVTVEDGPTKSDPRCLTRYYSSFVNMERDLASGLIGPLLICYKESVDQRGNQIMSDKRNVILFSVFDENRSWYLTENIQRFLPNPAGVQLEDPEFQASNIMHSINGYVFDSLQLSVCLHEVAYWYILSIGAQTDFLSVFFSGYTFKHKMVYEDTLTLFPFSGETVFMSMENPGLWILGCHNSDFRNRGMTALLKVSSCDKNTGDYYEDSYEDISAYLLSKNNAIEPR
modifications: 125I-labelled where used as tracer
notes: Protein was made from plasma-derived fVIII
Molecule B2 gave a Ki in test [4] of 132 nM. Moreover, in test [5], the Kd stood at 130 nM. Besides, in test [6], the “inhibition of degradation of 125I-fVIII/vWf complex by MEF cells by a 1000-fold excess of A2, after 4 hours” value was greater than 60% and the “inhibition of internalization of 125I-fVIII/vWf complex by MEF cells by a 1000-fold excess of A2, after 4 hours” value is greater than 70%.

B3: heavy chain (HCh) of factor VIII (other)
chain: ATRRYYLGAVELSWDYMQSDLGELPVDARFPPRVPKSFPFNTSVVYKKTLFVEFTDHLFNIAKPRPPWMGLLGPTIQAEVYDTVVITLKNMASHPVSLHAVGVSYWKASEGAEYDDQTSQREKEDDKVFPGGSHTYVWQVLKENGPMASDPLCLTYSYLSHVDLVKDLNSGLIGALLVCREGSLAKEKTQTLHKFILLFAVFDEGKSWHSETKNSLMQDRDAASARAWPKMHTVNGYVNRSLPGLIGCHRKSVYWHVIGMGTTPEVHSIFLEGHTFLVRNHRQASLEISPITFLTAQTLLMDLGQFLLFCHISSHQHDGMEAYVKVDSCPEEPQLRMKNNEEAEDYDDDLTDSEMDVVRFDDDNSPSFIQIRSVAKKHPKTWVHYIAAEEEDWDYAPLVLAPDDRSYKSQYLNNGPQRIGRKYKKVRFMAYTDETFKTREAIQHESGILGPLLYGEVGDTLLIIFKNQASRPYNIYPHGITDVRPLYSRRLPKGVKHLKDFPILPGEIFKYKWTVTVEDGPTKSDPRCLTRYYSSFVNMERDLASGLIGPLLICYKESVDQRGNQIMSDKRNVILFSVFDENRSWYLTENIQRFLPNPAGVQLEDPEFQASNIMHSINGYVFDSLQLSVCLHEVAYWYILSIGAQTDFLSVFFSGYTFKHKMVYEDTLTLFPFSGETVFMSMENPGLWILGCHNSDFRNRGMTALLKVSSCDKNTGDYYEDSYEDISAYLLSKNNAIEPRSFSQNSRHRSTRQKQFNATTIPENDIEKTDPWFAHRTPMPKIQNVSSSDLLMLLRQSPTPHGLSLSDLQEAKYETFSDDPSPGAIDSNNSLSEMTHFRPQLHHSGDMVFTPESGLQLRLNEKLGTTAATELKKLDFKVSSTSNNLISTIPSDNLAAGTDNTSSLGPPSMPVHYDSQLDTTLFGKKSSPLTESGGPLSLSEENNDSKLLESGLMNSQESSWGKNVSSTESGRLFKGKRAHGPALLTKDNALFKVSISLLKTNKTSNNSATNRKTHIDGPSLLIENSPSVWQNILESDTEFKKVTPLIHDRMLMDKNATALRLNHMSNKTTSSKNMEMVQQKKEGPIPPDAQNPDMSFFKMLFLPESARWIQRTHGKNSLNSGQGPSPKQLVSLGPEKSVEGQNFLSEKNKVVVGKGEFTKDVGLKEMVFPSSRNLFLTNLDNLHENNTHNQEKKIQEEIEKKETLIQENVVLPQIHTVTGTKNFMKNLFLLSTRQNVEGSYDGAYAPVLQDFRSLNDSTNRTKKHTAHFSKKGEEENLEGLGNQTKQIVEKYACTTRISPNTSQQNFVTQRSKRALKQFRLPLEETELEKRIIVDDTSTQWSKNMKHLTPSTLTQIDYNEKEKGAITQSPLSDCLTRSHSIPQANRSPLPIAKVSSFPSIRPIYLTRVLFQDNSSHLPAASYRKKDSGVQESSHFLQGAKKNNLSLAILTLEMTGDQREVGSLGTSATNSVTYKKVENTVLPKPDLPKTSGKVELLPKVHIYQKDLFPTETSNGSPGHLDLVEGSLLQGTEGAIKWNEANRPGKVPFLRVATESSAKTPSKLLDPLAWDNHYGTQIPKEEWKSQEKSPEKTAFKKKDTILSLNACESNHAIAAINEGQNKPEIEVTWAKQGRTERLCSQNPPVLKRHQR
notes: Prepared from plasma-derived fVIII
In the case of B3, in test [7], the Ki is 120 nM.

Usually Ki stands for the equilibrium dissociation constant of an inhibitor or competing ligand from its target. Lower therefore signals higher affinity. A word on the Kd: it is the free concentration of one partner at which half of the binding sites on the other are occupied at equilibrium, for simple one-to-one binding. Lower therefore signals higher affinity.
